Publication PMC7875971, “Cavin1 intrinsically disordered domains are essential for fuzzy electrostatic interactions and caveola formation” (Nature Communications, 2021)

Biological target: the molecule itself
Test: fluorescence correlation spectroscopy (FCS); purified ubiquitin- and GFP-tagged proteins at 0.1 µM in 20 mM HepesKOH pH 7.6 with 150 mM NaCl, compared with 500 mM NaCl; diffusivity as read-out of self-association

B1: His-ubiquitin- and GFP-tagged full-length Cavin1 (recombinant GFP-Cavin1) (natural protein, mouse, UniProt O54724 1-392, looked up)
chain: MEDVTLHIVERPYSGFPDASSEGPEPTQGEARATEEPSGTGSDELIKSDQVNGVLVLSLLDKIIGAVDQIQLTQAQLEERQAEMEGAVQSIQGELSKLGKAHATTSNTVSKLLEKVRKVSVNVKTVRGSLERQAGQIKKLEVNEAELLRRRNFKVMIYQDEVKLPAKLSVSKSLKESEALPEKEGDELGEGERPEDDTAAIELSSDEAVEVEEVIEESRAERIKRSGLRRVDDFKKAFSKEKMEKTKVRTRENLEKTRLKTKENLEKTRHTLEKRMNKLGTRLVPVERREKLKTSRDKLRKSFTPDHVVYARSKTAVYKVPPFTFHVKKIREGEVEVLKATEMVEVGPEDDEVGAERGEATDLLRGSSPDVHTLLEITEESDAVLVDKSDSD
notes: Cavin1, mouse, residues 1-392; also called purified recombinant GFP-Cavin1; source: E. coli Rosetta 2 (DE3), purified (TALON, Superose 6 SEC); not shown: His6-ubiquitin, N-terminal, kept; GFP, C-terminal, kept
B1: binds.
